From paper PMC6595180

Columns and labels:
[1] = molecular target: BG505 SOSIP.v4.1-GT1.1 gp140 trimer (HIV-1 (BG505)); assay: AUC; sedimentation velocity, 20°C, 40,000 rpm, detection at 280 nm, 0.5 mg/mL in formulation buffer (20 mM Tris, 100 mM NaCl pH 7.5); continuous c(s) distribution; also after 0, 1 and 5 freeze-thaw cycles
[2] = molecular target: BG505 SOSIP.664 gp140 trimer (HIV-1 (BG505)); assay: as above

## BG505 SOSIP.v4.1-GT1.1 gp140 trimer (complex)
[1]
  stoichiometry N: 3

## BG505 SOSIP.664 gp140 trimer (complex)
[2]
  stoichiometry N: 3
